Data from patent US20230292718A1, “METHOD FOR CONSTRUCTING MODEL OF VITILIGO AND THE USE OF THE MODEL” (NATIONAL INSTITUTE OF BIOLOGICAL SCIENCES, BEIJING, priority 2020, published 2023).

B1: IFN-γ: recombinant interferon gamma used to treat fibroblasts in vitro (protein, UniProt P01580 23-155, looked up)
Interferon gamma: HGTVIESLESLNNYFNSSGIDVEEKSLFLDIWRNWQKDGDMKILQSQIISFYLRLFEVLKDNQAISNNISVIESHLITTFFSNSKAKKDAFMSIAKFEVNNPQVQRQAFNELIRVVHQLLPESSLRKRKRSRC
B2: CXCL9: recombinant chemokine protein added to lower chamber of transwell (protein, UniProt P18340 22-126, looked up)
C-X-C motif chemokine 9: TLVIRNARCSCISTSRGTIHYKSLKDLKQFAPSPNCNKTEIIATLKNGDQTCLDPDSANVKKLMKEWEKKISQKKKQKRGKKHQKNMKNRKPKTPQSRRRSRKTT
B3: CCL19: recombinant chemokine protein added to lower chamber of transwell (protein, UniProt O70460 26-108, looked up)
C-C motif chemokine 19: GANDAEDCCLSVTQRPIPGNIVKAFRYLLNEDGCRVPAVVFTTLRGYQLCAPPDQPWVDRIIRRLKKSSAKNKGNSTRRSPVS
B4: CXCL10: recombinant chemokine protein added to lower chamber of transwell (protein, UniProt P17515 22-98, looked up)
C-X-C motif chemokine 10: IPLARTVRCNCIHIDDGPVRMRAIGKLEIIPASLSCPRVEIIATMKKNDEQRCLNPESKTIKNLMKAFSQKRSKRAP

Experiments:
[1] = system: primary mouse fibroblasts; test: QPCR analysis of IFN-γ treated primary fibroblasts using target gene CXCL10 as readout; type: cell-based
Protocol: Total RNAs were isolated from FACS-sorted cells with Trizol followed by extraction using Direct-Zol RNA mini-prep Kit (Zymo research). For cDNA synthesis, equal amounts of RNA were reverse-transcribed by Oligo-dT (Vazyme, R222-01). Expression levels were normalized to the expression of PPIB. Real time PCR was conducted using a CFX96TM Real-Time system (Bio-RAD) with Power SYBRR Green PCR Master Mix (Life Technologies). All primer pairs were designed for the same cycling conditions: 10 min at 95° C. for initial denaturing, 40 cycles of 10 s at 95° C. for denaturing, 30 s at 62° C. for annealing, and 10 s at 65° C. for extension. The primers were designed to produce a product spanning exon-intron boundary in each of the target genes.
Primary fibroblasts isolated from WT or IFNGR1 KO newborn mice dorsal skin were infected with lentivirus expressing shRNA and RFP in vitro. The RFP+ fibroblasts were then intradermally injected into P56 mice tail skin. The presence and location of injected cells were examined 2 weeks later. […] Primary mouse fibroblasts were treated with IFN-γ of increasing dosage and duration time in vitro. Treatment time ranges from 6 hrs to 48 hrs; and IFN-γ concentration gradients range from 5 U/mL to 200 U/mL. […] Primary mouse fibroblasts were treated with increasing dosage of IFN-γ for 6 hrs in vitro. IFN-γ concentration gradients range from 5 U/mL to 1000 U/mL. […]

3T3 fibroblasts = test: qPCR analysis of shRNA effect in blocking IFN-γ response (GBP2 reporter); type: cell-based, mouse; details: 6 hrs IFN-γ treatment, cells expressing scrambled shRNA
[2] = system: activated CD8+OT1 T cells; test: T cell transwell migration assay with recombinant chemokines; type: cell-based, mouse; details: recombinant protein at increasing concentrations in lower chamber, 3 hr incubation
Protocol: Transwell migration of lymphocytes was performed with mature CTLs and concentrated fibroblast conditioned medium. In brief, splenocytes isolated from OT-1 mice were stimulated with OVA257-264 for 3 days in the presence of 10 ng/mL IL2. Cells were centrifuged and cultured in fresh medium containing 10 ng/mL IL2 for 1 more day, after which most of the cells in the culture were CTLs. To measure CD8+ T cell cytotoxicity, B16F10 expressing OVA peptide was mixed in the killing medium at the ratios of 1:1. After 6 hs, the cytotoxic efficiency was confirmed by B16F10 cell survival.
To further identify the secreted factors involved in this process, we first performed RNA-seq analysis of fibroblasts from WT and IFNGR1 KO mice at Day 33 after vitiligo induction, alongside WT mice without vitiligo induction (FIG. 6C). […] Next we compared the single cell transcriptome data of progressive state vitiligo patients fibroblasts and healthy donors fibroblasts. Unsupervised clustering performed by spectral clustering method separates fibroblasts into 4 sub-clusters in healthy donors and 5 sub-clusters in progressive state vitiligo patients (FIG. 6D). […] Comparison of the human and mouse vitiligo fibroblasts specific secreted protein gene signatures, we identified 29 overlapped genes. Among them 11 are conserved major histocompatibility complex genes and 6 are chemokines, including CCL5, CCL8, CCL19, CXCL3, CXCL9 and CXCL10 (FIG. 6F-6G). […]
RFP expressing WT or IFNGR1 KO fibroblasts were intradermally injected into the tail skin of IFNGR1 KO mice. After vitiligo induction on the host mice, CD8+ T cell infiltration was analyzed by whole-mount immunofluorescent staining and quantification. […] Cells were collected from both chambers and counted by flow cytometry after 3 hr incubation. […] After 3 hr incubation, CD8+ T cell migration index was calculated by dividing the number of migrated cells (cells in lower chamber) using the number of migrated plus unmigrated cells (cells in upper chamber+lower chamber).

Molecule | IFN-γ concentration inducing maximum activation (CXCL10 expression level) ([1]; 6 hrs in vitro, gradient 5 U/mL to 1000 U/mL) | CXCL10 expression ([1]; IFN-γ 5 U/mL to 200 U/mL, 6 hrs to 48 hrs) | GBP2 expression level (3T3 fibroblasts) | CD8+ T cell migration (migration index) [2]
B1 | 1000 U/mL | induced by IFN-γ in a dosage dependent manner | significantly increased | 
B2 |  |  |  | induce CD8+ T cell migration in a dosage dependent manner
B3 |  |  |  | induce CD8+ T cell migration in a dosage dependent manner
B4 |  |  |  | induce CD8+ T cell migration in a dosage dependent manner
